The source of these data is patent publication US20260201396, “New LoxPsym Sites for Large-Scale Orthogonal Cre-Mediated Recombination” (VIB VZW, published 2026).

The data set has as its target T1, Cre recombinase (Punavirus P1).
T1 chain: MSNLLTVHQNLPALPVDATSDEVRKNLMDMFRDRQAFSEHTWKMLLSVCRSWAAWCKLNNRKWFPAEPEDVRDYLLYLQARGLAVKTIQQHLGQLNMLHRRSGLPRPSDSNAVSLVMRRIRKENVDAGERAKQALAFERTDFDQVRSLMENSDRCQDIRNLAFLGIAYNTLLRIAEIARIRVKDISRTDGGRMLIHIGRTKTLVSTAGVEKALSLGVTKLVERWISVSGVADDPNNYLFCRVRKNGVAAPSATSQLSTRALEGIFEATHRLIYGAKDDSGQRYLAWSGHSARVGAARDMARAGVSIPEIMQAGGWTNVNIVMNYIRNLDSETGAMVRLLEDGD
As to the kind of experiment: cell_activity; as above. An excerpt: Similar to the development of the original LoxPsym site by Hoess et al. (1986 J Cell Biochem), we edited the spacer of the LoxP site to obtain new non-directional recombination sites. In doing so, we focused on altering the first three nucleotides of the spacer (FIG. 2), as it was shown before that changing the nucleotides at position 4 and 5 of the spacer (T and A respectively) prevents recombination (Hoess et al 1986). The last three nucleotides were adapted accordingly to ensure the spacer remained palindromic. As such, we were able to design maximally 63 new potential LoxPsym sites. To test if the Cre enzyme was still able to recombine the new LoxPsym variants, we conducted a fluorescent-based assay in yeast via genomic integration of a fluorescence cassette which was flanked by identical LoxPsym variants at both sites (FIGS. 3A and 3C). Recombination of functional LoxPsym variants enables the deletion of the fluorescence cassette. The fraction of non-fluorescent cells in the population after induction of Cre-mediated recombination, was used to determine the recombination efficiency of the new LoxPsym sites. To verify if this set-up is valid for estimation of the recombination efficiency, the dual-fluorescent-reporter system shown in FIG. 3A was used to assess the frequency of inversion/deletion over time. […] Recombination efficiencies largely altered between different LoxPsym variants (Table 1). 63 new LoxPsym variants were obtained with altering recombination efficiencies ranging from 13% to 89%.

B1: LoxPsym-ACT (dsDNA)
DNA 1: ATAACTTCGTATAACTTAAGTTATACGAAGTTAT
DNA 2: ATAACTTCGTATAACTTAAGTTATACGAAGTTAT
Turning to B1, the activity stood at 70.5%.

B2: LoxPsym-AAT (dsDNA)
DNA 1: ATAACTTCGTATAAATTAATTTATACGAAGTTAT
DNA 2: ATAACTTCGTATAAATTAATTTATACGAAGTTAT
On to B2, for which the activity is 71.1%.

B3: LoxPsym-GCG (dsDNA)
DNA 1: ATAACTTCGTATAGCGTACGCTATACGAAGTTAT
DNA 2: ATAACTTCGTATAGCGTACGCTATACGAAGTTAT
B3: the activity turned out to be 79.2%.

B4: LoxPsym-CAT (dsDNA)
DNA 1: ATAACTTCGTATACATTAATGTATACGAAGTTAT
DNA 2: ATAACTTCGTATACATTAATGTATACGAAGTTAT
For the molecule B4, the activity is 79.1%.

B5: LoxPsym-GCT (dsDNA)
DNA 1: ATAACTTCGTATAGCTTAAGCTATACGAAGTTAT
DNA 2: ATAACTTCGTATAGCTTAAGCTATACGAAGTTAT
For B5, the activity came to 37.2%.

B6: LoxPsym-GGT (dsDNA)
DNA 1: ATAACTTCGTATAGGTTAACCTATACGAAGTTAT
DNA 2: ATAACTTCGTATAGGTTAACCTATACGAAGTTAT
Take B6: the activity turned out to be 38%.

B7: LoxPsym-CCG (dsDNA)
DNA 1: ATAACTTCGTATACCGTACGGTATACGAAGTTAT
DNA 2: ATAACTTCGTATACCGTACGGTATACGAAGTTAT
For the molecule B7, the activity amounted to 76%.

B8: LoxPsym-GAT (dsDNA)
DNA 1: ATAACTTCGTATAGATTAATCTATACGAAGTTAT
DNA 2: ATAACTTCGTATAGATTAATCTATACGAAGTTAT
For B8, the activity came to 36.9%.

B9: LoxPsym-GGA (dsDNA)
DNA 1: ATAACTTCGTATAGGATATCCTATACGAAGTTAT
DNA 2: ATAACTTCGTATAGGATATCCTATACGAAGTTAT
For B9, the activity turned out to be 37.1%.

B10: LoxPsym-TTC (dsDNA)
DNA 1: ATAACTTCGTATATTCTAGAATATACGAAGTTAT
DNA 2: ATAACTTCGTATATTCTAGAATATACGAAGTTAT
In the case of B10, the activity was found to be 62.3%.

B11: LoxPsym-GCC (dsDNA)
DNA 1: ATAACTTCGTATAGCCTAGGCTATACGAAGTTAT
DNA 2: ATAACTTCGTATAGCCTAGGCTATACGAAGTTAT
For B11, the activity was determined as 65.1%.

B12: LoxPsym-GTA (dsDNA)
DNA 1: ATAACTTCGTATAGTATATACTATACGAAGTTAT
DNA 2: ATAACTTCGTATAGTATATACTATACGAAGTTAT
As to B12, the activity came out at 64.3%.

B13: LoxPsym-TGG (dsDNA)
DNA 1: ATAACTTCGTATATGGTACCATATACGAAGTTAT
DNA 2: ATAACTTCGTATATGGTACCATATACGAAGTTAT
As to B13, the activity is 69.1%.

B14: LoxPsym-TGT (dsDNA)
DNA 1: ATAACTTCGTATATGTTAACATATACGAAGTTAT
DNA 2: ATAACTTCGTATATGTTAACATATACGAAGTTAT
Regarding B14, the activity amounted to 82.4%.

B15: LoxPsym-CCC (dsDNA)
DNA 1: ATAACTTCGTATACCCTAGGGTATACGAAGTTAT
DNA 2: ATAACTTCGTATACCCTAGGGTATACGAAGTTAT
With B15, the activity was determined as 67.2%.

B16: LoxPsym-TAT (dsDNA)
DNA 1: ATAACTTCGTATATATTAATATATACGAAGTTAT
DNA 2: ATAACTTCGTATATATTAATATATACGAAGTTAT
As for B16, the activity stood at 89.3%.

B17: LoxPsym-TAA (dsDNA)
DNA 1: ATAACTTCGTATATAATATTATATACGAAGTTAT
DNA 2: ATAACTTCGTATATAATATTATATACGAAGTTAT
With B17, the activity was 65.5%.

B18: LoxPsym-TAC (dsDNA)
DNA 1: ATAACTTCGTATATACTAGTATATACGAAGTTAT
DNA 2: ATAACTTCGTATATACTAGTATATACGAAGTTAT
For the molecule B18, the activity worked out at 75.3%.

B19: LoxPsym-TAG (dsDNA)
DNA 1: ATAACTTCGTATATAGTACTATATACGAAGTTAT
DNA 2: ATAACTTCGTATATAGTACTATATACGAAGTTAT
On to B19, for which the activity was 70.3%.

B20: LoxPsym-TCC (dsDNA)
DNA 1: ATAACTTCGTATATCCTAGGATATACGAAGTTAT
DNA 2: ATAACTTCGTATATCCTAGGATATACGAAGTTAT
On to B20, for which the activity worked out at 80%.

B21: LoxPsym-TTG (dsDNA)
DNA 1: ATAACTTCGTATATTGTACAATATACGAAGTTAT
DNA 2: ATAACTTCGTATATTGTACAATATACGAAGTTAT
Take B21: the activity amounted to 80.6%.

B22: LoxPsym-TGC (dsDNA)
DNA 1: ATAACTTCGTATATGCTAGCATATACGAAGTTAT
DNA 2: ATAACTTCGTATATGCTAGCATATACGAAGTTAT
B22: the activity worked out at 72%.

B23: LoxPsym-GAC (dsDNA)
DNA 1: ATAACTTCGTATAGACTAGTCTATACGAAGTTAT
DNA 2: ATAACTTCGTATAGACTAGTCTATACGAAGTTAT
In the case of B23, the activity came out at 67.4%.

B24: LoxPsym-TTA (dsDNA)
DNA 1: ATAACTTCGTATATTATATAATATACGAAGTTAT
DNA 2: ATAACTTCGTATATTATATAATATACGAAGTTAT
Consider B24, for which the activity worked out at 35.8%.

B25: LoxPsym-CGC (dsDNA)
DNA 1: ATAACTTCGTATACGCTAGCGTATACGAAGTTAT
DNA 2: ATAACTTCGTATACGCTAGCGTATACGAAGTTAT
With B25, the activity came to 69.4%.

B26: LoxPsym-GTT (dsDNA)
DNA 1: ATAACTTCGTATAGTTTAAACTATACGAAGTTAT
DNA 2: ATAACTTCGTATAGTTTAAACTATACGAAGTTAT
As for B26, the activity came out at 64.6%.

B27: LoxPsym-CAG (dsDNA)
DNA 1: ATAACTTCGTATACAGTACTGTATACGAAGTTAT
DNA 2: ATAACTTCGTATACAGTACTGTATACGAAGTTAT
B27: the activity stood at 79.9%.

B28: LoxPsym-CGG (dsDNA)
DNA 1: ATAACTTCGTATACGGTACCGTATACGAAGTTAT
DNA 2: ATAACTTCGTATACGGTACCGTATACGAAGTTAT
On to B28, for which the activity was found to be 81.5%.
